Entries after “also recorded” stand apart in the source; their conditions may differ.
Columns and labels:
gut microbiota [1] = assay: Restoration of gut flora after streptomycin treatment with or without cIAP (stool culture in LB media); type: in vivo, mice (C57BL/6)
Protocol: To address the role of intestinal alkaline phosphatase on the gastrointestinal tract flora of mammals, an experiment was performed in which five approximately six week old mice (C57BL/6) of each test group were treated with an antimicrobial drug, streptomycin, in the presence or absence of calf intestinal alkaline phosphatase (cIAP) (Sigma, St. Louis, Mo.). Both streptomycin (5 mg/ml) and cIAP (50 units/ml) were administered orally with the animal's drinking water. Individual stool samples of each group were cultured in LB media each day and analyzed for the presence/absence of gut flora. The gastrointestinal tract flora of mice before antibiotic treatment was considered as a baseline control for the normal gut flora (present in all samples).

[2] = tested on: Gram-negative bacteria (mostly E. coli); assay: Restoration of commensal Gram-negative gut flora in streptomycin-treated WT mice with or without cIAP (MacConkey agar); type: in vivo; conditions: for Number of animals with commensal Gram-negative bacteria / restoration of gut flora, cIAP+ vs cIAP- Group: after streptomycin for three days, cIAP 200 U/ml, p<0.00004
Protocol: Accordingly, experiments were performed in which groups of WT mice (n=10) were treated orally with the antibiotic streptomycin in the presence or absence of cIAP. Streptomycin (5 mg/ml) and cIAP (200 U/ml for cIAP^+ Group, n=5) or ‘vehicle for cIAP’ (20 μl/ml ‘vehicle for cIAP’ (50 mM KCl, 10 mM Tris-HCl (pH 8.2), 1 mM MgCl, 0.1 mM ZnCl2, and 50% glycerol) in drinking water for control cIAP^− Group, n=5) were administered in the animals' drinking water and fecal cultures were performed.
Individual stool samples were cultured each day on MacConkey agar media. […] After discontinuation of antibiotic treatment, the time of appearance (Day) of Gram-negative bacteria (mostly E. coli, occasionally P. mirabilis) in stool samples was recorded for each animal. The experiment was repeated six times, which raised the total number of animals in each group to 39 (n=39), however, duration of each experiment varied (7-35 days). Data was compiled from all six experiments and the number of animals with E. coli in each group on a specific day was recorded.

[3] = tested on: streptomycin-resistant E. coli; assay: Survival of gavaged commensal E. coli in IAP-KO mice given oral cIAP; type: in vivo; conditions: oral supplementation of cIAP
From the text: Two groups of IAP-KO animals (n=6) were put on drinking water containing cIAP or ‘vehicle for cIAP.’ On Day 2, animals were gavaged with 20,000 CFU of streptomycin-resistant E. coli, which is a commensal bacterium isolated from the stool of a WT mouse, and the presence of streptomycin-resistant E. coli in the stools of these animals was closely monitored. As only a few animals carried E. coli in their stools (FIG. 4B), the animals were gavaged with another dose of 50,000 CFU of E. coli on Day 5, however, again only a few animals shed E. coli in their stools. On Day 8, most of the animals of either group carried no E. coli in their stools. Supplementation of cIAP was stopped and the animals were treated with streptomycin for 3 days, which should kill most of the native flora, but would allow proliferation of the surviving streptomycin-resistant E. coli.

gut microbiota [4] = assay: Restoration of gut flora after ampicillin treatment with or without cIAP (stool culture in LB media); type: in vivo, mice (C57BL/6)
Protocol: An experiment was performed in which five mice (C57BL/6) of each test group, approximately 6 weeks old, were treated with 1 mg/ml of the antimicrobial drug ampicillin, in the presence or absence of calf intestinal alkaline phosphatase (cIAP) (New England Biolabs, Ipswich, Mass.). Ampicillin was administered orally with the animal's drinking water at a concentration of 1 mg/ml, and 250 units of cIAP were administered twice daily as oral gavage. Individual stool samples of each group were cultured in LB media each day and analyzed for the presence/absence of the gut flora. The gut flora of mice before receiving the antibiotic was considered as a baseline control for normal gastrointestinal tract flora (present in all samples). […] Both treatment groups received ampicillin for 10 days.

[5] = tested on: streptomycin-resistant E. coli; assay: Colonization of E. coli in antibiotic-treated WT mice supplemented with cIAP; type: in vivo; conditions: WT mice after streptomycin and ciprofloxacin, p<0.015
Protocol: To determine the temporal effects of IAP on the restoration of commensal gut flora, groups of WT animals (n=6) were treated with streptomycin (5 mg/ml) and ciprofloxacin (0.5 mg/ml) for three days followed by oral gavage of small doses (20,000 CFU) of streptomycin-resistant E. coli for two alternate days (FIG. 4C; Day 0 and Day 2) in the presence or absence of cIAP.

[6] = tested on: streptomycin-resistant S. typhimurium; assay: Growth of Salmonella typhimurium in streptomycin-treated WT mice with or without cIAP; type: in vivo; conditions: for Growth of pathogenic S. typhimurium: cIAP in the drinking water
Protocol: Restoration or maintenance of the normal gastrointestinal tract flora by IAP was postulated to inhibit infection by pathogenic bacteria because pathogenic bacteria would likely face competition for ‘food and shelter’ (e.g., nutrition, epithelial attachment sites, space, etc.) and antibacterial factors produced by commensal organisms. Accordingly, groups of WT mice (n=5) were treated with streptomycin (5 mg/ml) for 3 days, followed by oral gavage of 500,000 CFU of streptomycin-resistant S. typhimurium in the presence of cIAP (200 U/ml for cIAP^+ Group) or absence of cIAP (20 μl /ml ‘vehicle for cIAP’ (50 mM KCl, 10 mM Tris-HCl (pH 8.2), 1 mM MgCl2, 0.1 mM ZnCl2, and 50% glycerol) in drinking water for control cIAP^− Group). The presence of S. typhimurium was monitored in the stools of these animals by plating stools on Hektoen plates containing streptomycin (100 μg/ml).

[7] = type: physicochemical; conditions: 24 h
Protocol: IAP activity was determined following the protocol as described by Baykov et al. (Anal Biochem, 171:266, 1988). Briefly, individual stool samples were homogenized in water (10 mg/100 μl), centrifuged and supernatant was collected. Then 25 μl of the stool supernatant (or aqueous cIAP solution) were mixed with 175 μl phosphatase assay reagent containing 5 mM of p-nitrophenyl phosphate (pNPP) followed by determining optical density at 405 nm after a specific time period when the samples usually turned yellow due to release of p-nitrophenol. Protein concentrations of stool supernatants were measured using a kit from Bio-Rad Laboratories (Hercules, Calif.). The specific activity of the enzyme, expressed as pmole pNPP hydrolyzed per minute per μg of protein, and CFU per gm of stool +/− SEM were determined and the results are shown in FIG. 3. As expected, IAP activity is lower in hypothyroid animals (Weeks 6-32, FIG. 3A) as compared to the euthyroid animals (Week 0, FIG. 3A). […] At Week 32 the IAP activity in hyperthyroid animals was approximately 7-fold higher compared to euthyroid animals and 15-fold higher compared to hypothyroid animals. […] On the other hand the fecal bacterial counts in hyperthyroid animals continued to gradually increase, being the highest at Week 32 when the experiment was terminated (FIGS. 3B, 3C, and 3D). […]

B1: calf intestinal alkaline phosphatase (protein, UniProt P19111 20-506, looked up)
Intestinal-type alkaline …: LVPVEEEDPAFWNRQAAQALDVAKKLQPIQTAAKNVILFLGDGMGVPTVTATRILKGQMNGKLGPETPLAMDQFPYVALSKTYNVDRQVPDSAGTATAYLCGVKGNYRTIGVSAAARYNQCKTTRGNEVTSVMNRAKKAGKSVGVVTTTRVQHASPAGAYAHTVNRNWYSDADLPADAQMNGCQDIAAQLVNNMDIDVILGGGRKYMFPVGTPDPEYPDDASVNGVRKRKQNLVQAWQAKHQGAQYVWNRTALLQAADDSSVTHLMGLFEPADMKYNVQQDHTKDPTLQEMTEVALRVVSRNPRGFYLFVEGGRIDHGHHDDKAYMALTEAGMFDNAIAKANELTSELDTLILVTADHSHVFSFGGYTLRGTSIFGLAPSKALDSKSYTSILYGNGPGYALGGGSRPDVNDSTSEDPSYQQQAAVPQASETHGGEDVAVFARGPQAHLVHGVEEETFVAHIMAFAGCVEPYTDCNLPAPTTATSIPD
notes: calf intestinal alkaline phosphatase enzyme (Sigma)
Gut flora of mice receiving only cIAP (gut microbiota [1]; cIAP 50 units/ml in drinking water, no streptomycin): normal gut flora phenotype; also recorded: did not affect normal gut flora
Effect of cIAP on reestablishment of normal gut flora (gut microbiota [1]; co-administered with streptomycin throughout the treatment period): significantly enhanced the early reestablishment of normal gut flora
Number of animals with commensal Gram-negative bacteria / restoration of gut flora, cIAP+ vs cIAP- Group [2]: much higher
Number of animals with commensal Gram-negative bacteria / restoration of gut flora, cIAP+ vs cIAP- Group ([2]; listed as IAP): enhances the restoration of antibiotic-associated loss of gut flora
Day at the end of which all animals showed E. coli in their stools ([2]; cIAP+ Group, after discontinuation of streptomycin): 3 days
Survival of E. coli in IAP-KO mice [3]: can survive
Survival of E. coli in IAP-KO mice ([3]; listed as IAP): favors survival of E. coli
Gut flora of mice receiving only cIAP (gut microbiota [4]; 250 units cIAP twice daily oral gavage, no ampicillin): normal gut flora phenotype; also recorded: did not affect normal gut flora
Effect of cIAP on time for restoring the normal gut flora (gut microbiota [4]; with ampicillin): significantly reduced the time for restoring the normal gut flora
Colonization of E. coli [5]: temporal enhancement of colonization of E. coli
Colonization of E. coli ([5]; listed as IAP): temporal enhancement of E. coli colonization
Salmonella count, less than in cIAP- Group ([6]; cIAP 200 U/ml in drinking water, p<0.001): approximately 4 log
Growth of pathogenic S. typhimurium [6]: dramatically inhibited
Growth of pathogenic S. typhimurium ([6]; listed as IAP): inhibits Salmonella typhimurium infection
cIAP enzymatic activity remaining [7]: approximately 80%

From patent US20170252327A1, “Methods of Modulating Gastrointestinal Tract Flora Levels with Alkaline Phosphatase” (priority 2008, published 2017)
